The results in this text go back to patent publication US20210292392A1 (TSB THERAPEUTICS BEIJING, published 2021).

Assay [1] has as its target T1, full length spike (S) protein of SARS-CoV-2 (SARS-CoV-2, UniProt P0DTC2 14-1273). Nature of the assay: cell-based or functional assay.
Assay [2] deals with recombinant RBD of the spike protein of SARS-CoV-2 (residues Arg319-Phe541) (SARS-CoV-2, UniProt P0DTC2 319-541). Nature of the assay: SPR, RBD on CM5 chip.
Assay [3] addresses T1, full length spike (S) protein of …. The assay can be described thus: cell-based or functional assay. The source holds these as a separate data set.
For assay [4], the target named is spike protein on live SARS-CoV-2 (SARS-CoV-2, UniProt P0DTC2 14-1273). Nature of the assay: cell-based or functional assay.
Assay [5] has as its target spike (S) protein of live SARS-CoV-2 (SARS-CoV-2, UniProt P0DTC2 14-1273). The assay can be described thus: cell-based or functional assay.
The target in assay [6] is full length spike (S) protein of SARS-CoV-2 on pseudovirus (SARS-CoV-2, UniProt P0DTC2 14-1273). Nature of the assay: cell-based or functional assay.
The target of assay [7] is spike protein of live SARS-CoV-2 (SARS-CoV-2, UniProt P0DTC2 14-1273). Nature of the assay: cell-based or functional assay.

B1: P1A-1C10 (antibody, V domains shown)
VH: QVQLVQSGAEVKNPGSSVKVSCKAGGGTSSFYDINWVRQAPGQGLEWIGKIIPRLDIADYAQKSQGRVTITADKSTSTVYLELSSLKSDDTAVYFCARGRPGSEWAYGPFDLWGQGTLVTVSS
VL: DIQMTQSPSTLSASVGDRVTITCRASQSSRAWLAWYQQKPGKAPKLLISKASSLESGVPSRFSGSGYGTEFTLTISSLQPDDSATYYCHQYNSSPFTFGPGTKVQIKR
notes: human IgG1, kappa
B1: in assay [1], the “IC50, Pesudovirus neutralization” value is 21.5 µg/mL. Further, in assay [2], the dissociation constant (Kd) is 8.48 nM.

B2: P5A-2E1 (antibody, human IgG1, lambda, V domains shown)
VH: EVQLVQSGAEVKKPGESLKISCKGSGYSFTSYWIGWVRQMPGKGLEWMGIIYPGDSDTRYSPSFQGQVTISADKSISTAYLQWSSLKASDTAMYYCAQTSVTRNWFDPWGQGTLVTVSS
VL: SYVLTQPPSVSVAPGKTARITCGGNNIGSKSVHWYQQKPGQAPVLVIYYDSDRPSGIPERFSGSNSGNTATLTISRVEAGDEADYYCQVWDSSSDHVVFGGGTKLTVLG
For the molecule B2, the “IC50, pseudovirus neutralization” value in assay [3] came to 6.97 µg/mL.

B3: P2C-1A3 (antibody, V domains shown)
VH: QVQLVESGGGLVKPGGSLRLSCAASGFTFSDYYMSWIRQAPGKGLEWVSYISSSGSTIYYADSVKGRFTISRDNAKNSLYLQMNSLRAEDTAVYYCARDFSHQQLVPSWGQGTLVTVSS
VL: not shown
On to B3, for which the “IC50, live SARS-CoV-2 focus reduction neutralization test (FRNT)” value in assay [4] is 0.28 µg/mL.

B4: P2C-1A3 (antibody, V domains shown)
VH: B3 VH
VL: not shown
As for B4, in assay [5], the “Live virus IC50” value turned out to be 0.283 µg/mL and the “Live virus IC80” value is 1.46 µg/mL. In assay [6], the “Pseudovirus IC50” value was 0.62 µg/mL and the “Pseudovirus IC80” value was found to be 5.94 µg/mL.

B5: P5A-1C8 (antibody, human IgG1, kappa, V domains shown)
VH: QVQLVQSGAEVKKPGASVKVSCKASGYTFTSYYMHWVRQAPGQGLEWMGIINPSGGSTSYAQKFQGRVTMTRDTSTSTVYMELSSLRSEDTAVYYCARSARDYYDSSGYYYRAEYFQHWGQGTLVTVSS
VL: DIQMTQSPSSLSASVGDRVTITCQASQDISNYLNWYQQKPGKAPKLLIYDASNLETGVPSRFSGSGSGTDFTFTISSLQPEDIATYYCQQYDNLPSITFGQGTRLEIKR
As to B5, the “IC50, pseudovirus neutralization” value in assay [3] amounted to 0.434 µg/mL.

B6: P2C-1C10 (antibody, V domains shown)
VH: QVQLVQSGAEVKKPGSSVKVSCKASGGTFSSYAIIWVRQAPGQGLEWMGGIIPIFGTANYAQKFQGRVTITADESTSTAYMELSSLRSEDTAVYYCARVVTGYYFDYWGQGTLVTVSS
VL: EIVLTQSPATLSLSPGERATLSCRASQSVSSYLAWYQQKPGQAPRLLIYDASNRATGIPARFSGSGSGTDFTLTISSLEPEDFAVYYCQQRSNWPSFGQGTKLEIKR
Take B6: in assay [5], the “Live virus IC50” value worked out at 11.1 µg/mL and the “Live virus IC80” value was more than 50 µg/mL. For the same molecule, in assay [6], the “Pseudovirus IC50” value turned out to be 2.62 µg/mL and the “Pseudovirus IC80” value worked out at 4.64 µg/mL.

B7: P5A-1D2 (antibody, human IgG1, lambda, V domains shown)
VH: EVQLVESGGGLIQPGGSLRLSCAASGFIVSSNYMSWVRQAPGKGLEWVSIIYSGGSTYYADSVKGRFTISRDNSNNTLYLQMNSLRAEDTAVYYCARALQVGATSDYFDYWGQGTLVTVSS
VL: QSVLTQPPSVSGAPGQRVTISCTGSSSNIGAGYDVHWYQQLPGTAPKLLIYGNSNRPSGVPDRFSGSKSGTSASLAITGLQAEDETDYYCQSCDSSLSVVVFGGGTKLTVLG
For the molecule B7, the “IC50, pseudovirus neutralization” value in assay [3] amounted to 0.035 µg/mL.

B8: P5A-1D1 (antibody, V domains shown)
VH: EVQLVESGGGLIQPGGSLRLSCAASGLTVSSNYMSWVRQAPGKGLEWVSVIYSGGSTYYADSVKGRFTISRDNSKNTLYLQMNSLRAEDTAVYYCARDLYYYGMDVWGQGTTVTVST
VL: DIQLTQSPSFLSASVGDRVTITCRASQGISSYLAWYQQKPGKAPKLLIYAASTLQSGVPSRFSGSGSGTDFTLTISSLQPEDFATYYCQQLNSYPTFGQGTRLEIKR
B8: the “Live virus IC50” value in assay [7] came to 0.0189 µg/mL.
